Laboratory results published in US20130196320A1, “METHOD FOR IMPROVING CLEAVAGE OF DNA BY ENDONUCLEASE SENSITIVE TO METHYLATION” (CELLECTIS, priority 2010, published 2013).

Legend:
I-CreI wild type [1] = molecular target: T1, I-CreI wild type (Chlamydomonas reinhardtii, UniProt P05725 SEQ:1-163); experiment: FP; 400 mM NaCl, 10 mM CaCl2, pH8, 25 C; conditions: tags: C-terminal 6xHis, E. coli BL21; chain copies: 2 (inferred); label: 5' fluorescein on forward strand
T1 sequence: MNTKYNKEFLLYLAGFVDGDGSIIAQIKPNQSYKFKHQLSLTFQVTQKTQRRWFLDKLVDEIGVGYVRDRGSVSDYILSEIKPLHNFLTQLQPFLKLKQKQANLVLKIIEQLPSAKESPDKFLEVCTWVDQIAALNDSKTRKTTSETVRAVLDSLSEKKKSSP
Experimental: (§1) FIG. 4: Spectrofluorimetric titration of fluorescein-labeled C1234 by I-Cre I wild type. 25 nM of C1234 duplex was incubated with increasing concentrations of I-Cre I [from 0 to 400 nM, only 0-80 nM shown] in binding buffer (10 mM Tris-HCl, 400 mM NaCl, 10 mM CaCl₂, 10 mM DTT, pH8) at 25° C. After 30 minutes incubation, the fluorescence anisotropy of the mixture was recorded with a Pherastar Plus (BMG Labtech) operating in fluorescence polarization end point mode with excitation and emission wavelengths set to 495 and 520 nm respectively. Normalized fluorescence anisotropy is plotted as a function of active I-Cre I concentration. Apparent dissociation constant were determined by fitting raw data by an hyperbolic function (Aₓ=(A_{∞}*[Meganuclease])/(Kd+[Meganuclease]) with Aₓ, the fluorescence anisotropy value obtained at a given meganuclease concentration, A_{∞}, the fluorescence anisotropy value obtained at saturating concentration of meganuclease and Kd the dissociation constant of the equilibrium studied).
Fluorescein labeled C1234 oligonucleotides were synthesized and HPLC-purified by Eurogentec. To prepare C 1234 duplex corresponding to I-Cre I double strand DNA wild type target, C1234 forward (SEQ ID NO: 31, “a” strand below) labeled with Fluorescein on its 5′ end was mixed with 1 equivalent of C1234_reverse (SEQ ID NO: 32, “b” strand below) in 100 mM Tris-HCl, 50 mM EDTA, 150 mM NaCl, pH8. The mixture was heated to 95° C. for 2 min and then cooled down to 25° C. over 1 hour. C1234 duplex was eventually purified by anion exchange chromatography using a miniQ PE column (GE healthcare) pre-equilibrated with buffer A (20 mM Tris-HCl, pH7.4). Single stranded oligonucleotides and other contaminants were first discarded using a 0 to 360 mM NaCl step gradient and elution of pure C1234 duplex was performed with a 360-1000 mM NaCl linear gradient (5 column volumes). C 1234 duplex and fluorescein final concentrations were assessed by spectrophotometry using their respective extinction coefficients ε₂₆₀ₙₘ=62900 M⁻¹ cm⁻¹ and ε₄₉₅ₙₘ=83000 M⁻¹ cm⁻¹. […]

I-CreI wild type [2] = molecular target: T1, I-CreI wild type; experiment: FP; 400 mM NaCl, 10 mM CaCl2, pH8, 25 C; no saturation; conditions: tags: C-terminal 6xHis, E. coli BL21; chain copies: 2 (inferred); label: 5' fluorescein on forward strand
Experimental: as §1
(§2) Fluorescein labeled C1234 oligonucleotides were synthesized and HPLC-purified by Eurogentec. […] C 1234 duplex and fluorescein final concentrations were assessed by spectrophotometry using their respective extinction coefficients ε₂₆₀ₙₘ=62900 M⁻¹ cm⁻¹ and ε₄₉₅ₙₘ=83000 M⁻¹ cm⁻¹. […]

[3] = molecular target: T2, XPC4 meganuclease (I-CreI-derived) (Artificial Sequence); experiment: FP; 10 mM CaCl2, 150 mM NaCl, pH8, 25 C; not significantly different from unmethylated
T2 chain: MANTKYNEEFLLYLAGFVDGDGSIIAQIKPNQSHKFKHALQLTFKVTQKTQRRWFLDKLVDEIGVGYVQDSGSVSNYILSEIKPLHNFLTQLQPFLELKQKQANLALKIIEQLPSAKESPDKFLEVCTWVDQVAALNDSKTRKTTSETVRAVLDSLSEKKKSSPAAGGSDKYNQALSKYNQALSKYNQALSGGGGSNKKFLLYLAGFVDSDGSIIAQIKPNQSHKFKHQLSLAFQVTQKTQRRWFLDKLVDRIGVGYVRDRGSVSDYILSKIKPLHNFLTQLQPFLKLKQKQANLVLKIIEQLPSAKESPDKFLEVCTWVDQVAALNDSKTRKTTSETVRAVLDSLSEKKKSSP

I-CreI D75N = molecular target: T3, I-CreI D75N (UniProt P05725 SEQ:1-167); experiment: cleavage_in_vitro; relative to unmethylated C1221; conditions: tags: C-terminal 6xHis, E. coli BL21; chain copies: 2 (inferred)
T3 chain: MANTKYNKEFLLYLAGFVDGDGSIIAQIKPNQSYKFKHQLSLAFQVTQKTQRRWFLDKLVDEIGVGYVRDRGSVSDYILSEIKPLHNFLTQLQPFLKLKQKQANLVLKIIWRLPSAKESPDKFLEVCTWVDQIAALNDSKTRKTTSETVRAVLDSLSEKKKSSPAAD
Experimental: FIG. 3: In vitro cleavage of unmethylated or methylated C1221 by I-CreI D75N. 50 nM C1221 containing either 0, 1, 2 or 3 methylated CG was incubated with increasing concentrations of I-CreI D75N (0 to 2 μM) in reaction buffer (10 mM Tris-HCl, 150 mM NaCl, 10 mM MgCl₂, pH8) for an hour at 37° C. The reaction was stopped and cleaved and uncleaved C1221 (top and bottom panel respectively) were quantify and plotted as function of I-CreI D75N concentration.
To investigate the influence of C1221 methylation on the nuclease activity of I-CreI, an in vitro cleavage assay with either unmethylated or fully methylated C1221 duplex (SEQ ID NOs: 4-5 and 12-13 respectively) was performed. A constant amount of C1221 duplex (50 nM) was incubated with increasing concentration of I-CreI (0 to 2 μM) in a total volume of 25 μL of reaction buffer (10 mM Tris-HCl, 150 mM NaCl, 10 mM MgCl₂, pH8). Cleavage reaction was allowed to proceed 1 hour at 37° C. and then stopped by addition of 5 μL of 6× stop buffer (45% glycerol, 95 mM EDTA, 1.5% (w/v) SDS, 1.5 mg/mL proteinase K and 0.048% (w/v) bromophenol blue) followed by an hour incubation at 37° C. Cleaved and uncleaved DNA products were separated by PAGE using a TGX Any kD precast gel (Bio-Rad), stained with SYBR Green and then quantified using Quantity One software (Bio-Rad).
To investigate the influence of C1221 methylation on the nuclease activity of I-CreI D75N, in vitro cleavage assay with C1221 duplex containing either 0, 1, 2 or 3 methylated CG (SEQ ID NOs: 4-5, 6-7, 8-9, 10-11 respectively) was performed, according to the procedure described for I-CreI wild type.

[4] = molecular target: T4, ADCY9 meganuclease (I-CreI-derived) (Artificial Sequence); experiment: FP; apparent Kd, sigmoidal binding; 10 mM CaCl2, 150 mM NaCl, pH8, 25 C
T4 chain: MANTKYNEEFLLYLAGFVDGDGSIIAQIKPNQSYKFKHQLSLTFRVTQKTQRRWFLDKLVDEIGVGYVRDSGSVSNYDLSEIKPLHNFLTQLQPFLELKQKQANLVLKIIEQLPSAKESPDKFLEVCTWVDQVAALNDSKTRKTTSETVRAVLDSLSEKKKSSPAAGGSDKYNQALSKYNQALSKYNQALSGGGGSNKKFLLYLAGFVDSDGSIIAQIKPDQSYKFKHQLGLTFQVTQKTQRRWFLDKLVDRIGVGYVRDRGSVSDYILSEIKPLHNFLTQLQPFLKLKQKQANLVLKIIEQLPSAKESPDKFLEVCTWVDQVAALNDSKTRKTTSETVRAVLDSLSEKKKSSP

[5] = molecular target: T2, XPC4 meganuclease (I-CreI-derived); experiment: FP; 10 mM CaCl2, 150 mM NaCl, pH8, 25 C
I-CreI wild type [6] = molecular target: T1, I-CreI wild type; experiment: FP; 10 mM Tris pH8, 400 mM NaCl, 10 mM CaCl2, 10 mM DTT, 25 C; conditions: tags: C-terminal 6xHis, E. coli BL21; chain copies: 2 (inferred); label: 5' fluorescein on forward (a) strand
Experimental: as §1, §2

[7] = molecular target: T4, ADCY9 meganuclease (I-CreI-derived); experiment: FP; 10 mM CaCl2, 150 mM NaCl, pH8, 25 C

B1: C1234_Me-2b (dsDNA)
DNA 1: TCAAAACGTCGTGAGACAGTTTGG
DNA 2: CCAAACTGTCTCACGACGTTTTGA
modifications: 5mC at -2b
For B1, which Kd (I-CreI wild type [1]) is on record?
The Kd was 40.8 nM.

B2: C1234_Me-5b (dsDNA)
DNA 1: TCAAAACGTCGTGAGACAGTTTGG
DNA 2: CCAAACTGTCTCACGACGTTTTGA
modifications: 5mC at -5b
B2 was tested. Which Kd (I-CreI wild type [1]) did it give?
The Kd was 24 nM.

B3: C1234_Me-5b/-2b (dsDNA)
DNA 1: TCAAAACGTCGTGAGACAGTTTGG
DNA 2: CCAAACTGTCTCACGACGTTTTGA
modifications: 5mC at -5b, -2b
Which Kd (I-CreI wild type [2]) does the source give for B3 here?
Its Kd is > 1000 nM.

B4: C1234_Me-6a/-3a (dsDNA)
DNA 1: TCAAAACGTCGTGAGACAGTTTGG
DNA 2: CCAAACTGTCTCACGACGTTTTGA
modifications: 5mC at -6a, -3a
For B4, which Kd (I-CreI wild type [1]) is on record?
The Kd was ≤ 2.5 nM.

B5: XPC4.1_Me -11a/-10b & +10a/+11b (dsDNA)
DNA 1: TCGAGATGTCACACAGAGGTACGA
DNA 2: TCGTACCTCTGTGTGACATCTCGA
modifications: 5mC at -11a, -10b, +10a, +11b
For B5, which Kd [3] is on record?
The Kd was 127 nM.

B6: C1221_1Me (dsDNA)
DNA 1: GGGGTCAAAACGTCGTACGACGTTTTGAGGGG
DNA 2: CCCCTCAAAACGTCGTACGACGTTTTGACCCC
modifications: 5mC at 1 CpG on both strands
Which activity (I-CreI D75N) does the source give for B6 here?
Its activity is ~3 fold increase of C50.

B7: C1221_3Me (dsDNA)
DNA 1: GGGGTCAAAACGTCGTACGACGTTTTGAGGGG
DNA 2: CCCCTCAAAACGTCGTACGACGTTTTGACCCC
modifications: 5mC at 3 CpG on both strands
Which activity (I-CreI D75N) does the source give for B7 here?
The activity was > 10 fold increase of C50.

B8: C1221_2Me (dsDNA)
DNA 1: GGGGTCAAAACGTCGTACGACGTTTTGAGGGG
DNA 2: CCCCTCAAAACGTCGTACGACGTTTTGACCCC
modifications: 5mC at 2 CpG on both strands
How did the activity (I-CreI D75N) turn out when B8 was run?
The activity was > 10 fold increase of C50.

B9: C1234_Me full (dsDNA)
DNA 1: TCAAAACGTCGTGAGACAGTTTGG
DNA 2: CCAAACTGTCTCACGACGTTTTGA
modifications: 5mC at -6a, -3a, -5b, -2b
Which Kd (I-CreI wild type [2]) does the source give for B9 here?
The Kd was > 1000 nM.

B10: ADCY9.1_Me -3a/-2b (dsDNA)
DNA 1: CCCAGATGTCGTACAGCAGCTTGG
DNA 2: CCAAGCTGCTGTACGACATCTGGG
modifications: 5mC at -3a, -2b
With B10 as the binder, how does the Kd [4] read?
Its Kd is 431 nM.

B11: XPC4.1 (dsDNA)
DNA 1: TCGAGATGTCACACAGAGGTACGA
DNA 2: TCGTACCTCTGTGTGACATCTCGA
With B11 as the binder, how does the Kd [5] read?
Its Kd is 108 nM.

B12: C1234 (dsDNA)
DNA 1: TCAAAACGTCGTGAGACAGTTTGG
DNA 2: CCAAACTGTCTCACGACGTTTTGA
How did the Kd (I-CreI wild type [6]) turn out when B12 was run?
Its Kd is ≤ 2.5 nM.

B13: ADCY9.1 (dsDNA)
DNA 1: CCCAGATGTCGTACAGCAGCTTGG
DNA 2: CCAAGCTGCTGTACGACATCTGGG
How did the Kd [7] turn out when B13 was run?
Its Kd is 190 nM.
